# Measurements as given in PMC6139311.
# Tests used:
# [1] = tested on: Lrp;MBP-RctB (Escherichia coli;Vibrio cholerae); experiment: EMSA; conditions: scale: fold higher RctB affinity than to naked crtS
# Lrp (Escherichia coli) = experiment: EMSA
substance,measurement,setting,value
crtS (153 bp with ~100 bp lambda flanks),binding signal,[1],10
same,Kd,Lrp (Escherichia coli),5.5 nM
